From PMC10501182

Biological target: Protein A (ProA)-tagged INTAC (human) (UniProt Q8N201)
Assay: pull-down; in vitro; ProA-tagged INTAC incubated with the indicated purified subcomplexes and immobilised onto IgG resin, washed, SDS-PAGE and Coomassie blue staining; some lanes with DSIF, NELF, a DNA-RNA scaffold or a PP2A inhibitor added

“human RNA polymerase II overexpressed in Expi293F cells (from UniProt P24928 1-1970; P30876 1-1174; P19387 1-275; P52435 1-117) (complex)” was tested. Which stoichiometry N did it give?
Its stoichiometry N is 1.
